B1: HDV Ribozyme (parent)
chain: GGCCGGCAUGGUCCCAGCCUCCUCGCUGGCGCCGGCUGGGCAACAUUCCGAGGGGACCGUCCCCUCGGUAAUGGCGAAUGGGACCCA

Variants of B1 are the subject of this data set. Description: self-cleavage, relative activity (ratio to wild type); higher = more cleavage; co-transcriptional.
With GGCCGGCAUGGUCCCAGCCUCCUCGCUGGCACCGACUGGGCAACAUUCCGAGGGGACCGUCCCCUCGGUAAUGGCGAAUGGGACCCA, the self-cleavage was determined as 0.0455. The value for GGCCGGCAUGGUCCCAGCCUCCUCGCUGGCGCCGGAUGGGCAACAUUCCGAGGGGACCGUCCCCUUGGUAAUGGCGAAUGGGACCCA was 0.134; that for GGCCGGCAUGGUCGCAGCCUCCUCCCUGGCGCCGGCUGGGCAACAUUCCGAGGGGACCGUCCCCUCGGUAAUGGCGAAUGGGACCCA was 0. As to GGCCGGCAUGGUCCCAGCCUCCUCGCUGGCGCCGGCUGGGCAGCAUUCCGAGGGGACCGUCCCCUCGGUAAUAGCGAAUGGGACCCA, the self-cleavage was determined as 0.219. Regarding GGCCGGCAUGGUCCCAGCCUCCUCGCUGGCGCCGGCUAGGCAACAUUCCGAGGGGACUGUCCCCUCGGUAAUGGCGAAUGGGACCCA, the self-cleavage was determined as 0.175. The same measure for GGCCGGCAUGGUCCCAGCCUCCUCGCUGGCGCCGGCUGGGCAACAUUCCGAGGGGACCGUCCCCCCGGUAAUGGCGAAUGUGACCCA: 0.415; for GGCCGGCAUGGUCCCAGCCUCCUCGCUGGCGCCGGCUGGGCAACAUUCCGAGGGGACCGUCCCCUCGUUAAUGGGGAAUGGGACCCA: 0.228; for GGCCGGCAUGGUCCCAGCCUCCUCGCUGGCGCCGGCUGGGCAACAUUCCGAGGGGACUGUCCCCUCGGUAAUGGCGAAUGGAACCCA: 0.906. Regarding GGCCGGCAUGGUCCCAGCCUCCUCGCUUGCGCCGGCUGGGCAACAUUCCGAGGGGACCGUCCCCUCGGUAAUGGCGAACGGGACCCA, the self-cleavage amounted to 0.0707. Consider GGCCGGCAUGGUCCCAGCCUCCUCGCGGGCGCCGGCUGGGCAACUUUCCGAGGGGACCGUCCCCUCGGUAAUGGCGAAUGGGACCCA, for which the self-cleavage amounted to 0.831. On to GGCCGGCAUGGUCCCAGCCUCCUCGCUGGCGCCGGCUGGGCAACAUUCCGAGGGGACCGUCCGCGCGGUAAUGGCGAAUGGGACCCA, for which the self-cleavage was 0.277. For GGCCGGCGUGGUCCCAGCCUCCUCGCUGGCUCCGGCUGGGCAACAUUCCGAGGGGACCGUCCCCUCGGUAAUGGCGAAUGGGACCCA, the self-cleavage is 0.587. The value for GGCCGGCAUGGUCCCAGCCUCCUCGCUGGCGCCGGCUGGGCAACAUUCCGAGGGGACCGUCCCCUCGGUCAUCGCGAAUGGGACCCA was 0.514. The same measure for GGCCGGCAUGGUCCCAGCCUCCUCGCUGGCGCCGGCUGGGCAACAUUCCGAGGGCACCGUCCCCUCGGUAAUGGGGAAUGGGACCCA: 0.208. Take GGCCGGCAUGGUCCCAGCCUCCUCGCUGGCGCCGGCUGGGCAACAUUCCGAGGGGACCGUCCCCUCGGUAAUGGCGAAUGGAACCAA: the self-cleavage came out at 0.729. The value for GGCCGGCAUGGUCCCAGCCUCCUCGCUGGCGCCGGCUGGGCAUCAUUCCGAGGGGACCGUCCCCCCGGUAAUGGCGAAUGGGACCCA was 0.298. The same measure for GGCCGGCAUGGUCCCAGCCUCCUCGCUGGCGCCGGCCGGGUAACAUUCCGAGGGGACCGUCCCCUCGGUAAUGGCGAAUGGGACCCA: 1.29; for GGCCGGCAUGGUCCCAGCCUCCUCGCUGGCGCCGGCUGGGCAACAUUACGAGGGGACCGUCCCCUCGGUAAUGGCGAAUGGGAGCCA: 0.727. The value for GGCCAGCAUGGUCCCAGCCUCCUCGCUGGCGCCGGCUGGGCAACAUUCCGAGGGGACCGUCCCCUCGGUAAUGGGGAAUGGGACCCA was 0; that for GGCCGGCAUGGUCCCAGCCUCCUGGCUGGCGCCGGCUGGGCAACAUUCCGAGUGGACCGUCCCCUCGGUAAUGGCGAAUGGGACCCA was 0.117; that for GGCCGGCAUGGUCCCAGCCUCCUCGCUGGCGCCGGCUGGGCAACAUUCCGAGGGGCCCGUCCCCUCGGUAAUGGCGAAUGGGCCCCA was 0.494. With GGCCGGCAUGGUCCCAGCCUCCUCGCUGGCGCCGGCUGGUCAACAUUCCGAGGGGACCGUCCCCGCGGUAAUGGCGAAUGGGACCCA, the self-cleavage is 0.546. The value for GGCCGGCAUGGUCCCAGCCUCCUCGCUGGCGCCGGCUGGGCAACAUUCCGAGGGGACCGUCCCCUCGGUAAUGACGAAUGGGACCUA was 0.604.

GGCCGGCAUGGUCCCAUCCUCCUCGCUGGCGCCGGCUGGGCAUCAUUCCGAGGGGACCGUCCCCUCGGUAAUGGCGAAUGGGACCCA: the self-cleavage stood at 0.185. With GGCCGGCUUGGUCCCAGCCUCCUCGCUGGCGCCGACUGGGCAACAUUCCGAGGGGACCGUCCCCUCGGUAAUGGCGAAUGGGACCCA, the self-cleavage amounted to 0.426. For GGCCGGCAUGGUCCCAGCCUCCUCGCUGGCGCCGGCUGGGCAUCAUUCCGAGGGGACCGUCCCCUCCGUAAUGGCGAAUGGGACCCA, the self-cleavage came to 0.354. The value for GGCCGGCAUGGUCCCAGCCUCCUCACUGGCGCCGGCUGGGCAACAUUCCGAGGGGACCGUCCCCUCGGUAAUGGCGAAUCGGACCCA was 0.12. On to GGCCGGCAUGGUCCCAGCCUCCUCGCUGGUGCCGGCUGGGCAACAUUCCGAGGGGACCGUCCCAUCGGUAAUGGCGAAUGGGACCCA, for which the self-cleavage stood at 0.422. The same measure for GACCGGCAUGGUCCCAGCCUCCUCGCUGGCGCCGGCUGGGCAACAUUCCGUGGGGACCGUCCCCUCGGUAAUGGCGAAUGGGACCCA: 0.155. With GGCCGGCAUGGUCCCAGCCUCCUCGCUGGCGCCGACUGGGCAACAUUCCGAGGGGACCGUCCCCUCGGUAAUGACGAAUGGGACCCA, the self-cleavage amounted to 0.157. The same measure for GGCCGGCAUGGUCCAAGCCACCUCGCUGGCGCCGGCUGGGCAACAUUCCGAGGGGACCGUCCCCUCGGUAAUGGCGAAUGGGACCCA: 0.0573.

For the variant GGCCGGCAUGGUCCCAGCCUCCACGCUGGCGCCGGCUGGGCAACAUUCCGAGGGGACCGUCCCCUCGGUAAUGGCGAAUGGGGCCCA, the self-cleavage came to 0.767.

The record behind these values is the RNAGym collection of RNA variant scans (doi:10.7554/elife.80360).
